The text below walks through data of publication PMC9456187, “The Ambivalence of Connexin43 Gap Peptides in Cardioprotection of the Isolated Heart against Ischemic Injury” (International Journal of Molecular Sciences, 2022).

In assay [1] the target is RadA-EL2 (extracellular loop 2 of connexin43 grafted into the monomeric ATPase domain of Pyrococcus furiosus … (Pyrococcus furiosus | , Only the grafted connexin43 EL2 loop (the binding part) is given. It was displayed on the His-tagged monomeric RadA ATPase domain of Pyrococcus furiosus, treated here as a carrier. The scaffold limits)). The assay is described as follows: SPR; Biacore T200; his-tagged RadA-EL2 captured on NTA surface (about 200 RU) as ligand, Gap26 injected as analyte at 30 µL/min; 30 °C; 50 mM HEPES pH 7.5, 500 mM NaCl, 0.005% Tween-20, 0.1 mM TCEP; reference channel without nickel; 1:1 binding model. The conditions noted are these: both partners purified. For orientation: In SPR one partner is held on a chip, and binding of the other changes the refractive index at the surface.

For assay [2], the target named is RadA-EL1 (extracellular loop 1 of connexin43 grafted into the monomeric ATPase domain of Pyrococcus furiosus … (Pyrococcus furiosus | , Only the grafted connexin43 EL1 loop (the binding part) is given. It was displayed on the His-tagged monomeric RadA ATPase domain of Pyrococcus furiosus, treated here as a carrier. The scaffold limits)). In words: SPR; Biacore T200; his-tagged RadA-EL1 captured on NTA surface (about 200 RU) as ligand, Gap27 injected as analyte at 30 µL/min; 25 °C; 50 mM HEPES pH 7.5, 500 mM NaCl, 0.005% Tween-20; reference channel without nickel; 1:1 binding model. The conditions noted are these: both partners purified.
Sequence of RadA-EL1 (extracellular loop 1 of connexin43 grafted into the monomeric ATPase domain of Pyrococcus furiosus … (Pyrococcus furiosus | , Only the grafted connexin43 EL1 loop (the binding part) is given. It was displayed on the His-tagged monomeric RadA ATPase domain of Pyrococcus furiosus, treated here as a carrier. The scaffold limits)) (chain, as listed by the source): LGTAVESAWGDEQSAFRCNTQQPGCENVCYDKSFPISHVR

Sequence of RadA-EL2 (extracellular loop 2 of connexin43 grafted into the monomeric ATPase domain of Pyrococcus furiosus … (Pyrococcus furiosus | , Only the grafted connexin43 EL2 loop (the binding part) is given. It was displayed on the His-tagged monomeric RadA ATPase domain of Pyrococcus furiosus, treated here as a carrier. The scaffold limits)) (chain, as listed by the source): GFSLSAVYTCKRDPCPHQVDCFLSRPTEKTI

B1: Gap26 (peptide)
peptide: VCYDKSFPISHVR
notes: connexin43 mimetic peptide, 13 amino acids, analogue of the first extracellular loop (EL1) of connexin43; The peptide was tested on the RadA-EL2 construct; also called G26; connexin mimetic peptide Gap26; source: bought: Pepnome Inc., Hong Kong (peptide)
A word on the Kd: it is a measure of binding affinity in units of concentration. The low end stands for tighter binding, the high end for weaker binding. Broadly, the koff is a measure of how fast the partners let go of each other. Higher therefore signals fast dissociation. In the case of B1, in assay [1], binding was put at a Kd of 8 µM and the koff came to 0.0043 s⁻¹.

B2: Gap27 (peptide)
peptide: SRPTEKTIFII
notes: connexin43 mimetic peptide, 11 amino acids, analogue of the second extracellular loop (EL2) of connexin43; The peptide was tested on the RadA-EL1 construct; also called G27; connexin mimetic peptide Gap27; source: bought: Pepnome Inc., Hong Kong (peptide)
Take B2: in assay [2], the Kd is 6 µM and the koff stood at 0.061 s⁻¹.
